# Test system: Escherichia coli TOP10
# Test: shrunken log2 fold change of peptide-encoding DNA abundance (4.5 h post-induction vs induction); higher = less antimicrobial activity (less host growth inhibition)
# Details: time post-induction: 4.5 h; library: site-saturation at positions 5, 18, 19, 20
# 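Note: peptides expressed intracellularly from a pBAD plasmid library in pooled LB shake-flask culture, induced with 0.3% L-arabinose, DNA abundance read by NGS, three biological replicates, DESeq2 with apeglm shrinkage.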
row,Sequence,shrunken log2 fold change
1,RRIRNRPPRLPRPRPRPYNMPRP,-0.0281
2,RRIRQRPPRLPRPRPRPWTYPRP,0.0804
3,RRIRLRPPRLPRPRPRPSMRPRP,0.421
4,RRIRYRPPRLPRPRPRPLKPPRP,-0.696
5,RRIRPRPPRLPRPRPRPTYAPRP,0.133
6,RRIRGRPPRLPRPRPRPTNFPRP,-0.0941
7,RRIRVRPPRLPRPRPRPMEVPRP,-0.997
8,RRIRHRPPRLPRPRPRPMCKPRP,-0.151
9,RRIRARPPRLPRPRPRPSCFPRP,0.0871
10,RRIRQRPPRLPRPRPRPPERPRP,0.0424
11,RRIRSRPPRLPRPRPRPECRPRP,0.266
12,RRIRWRPPRLPRPRPRPHRMPRP,-0.203
13,RRIRNRPPRLPRPRPRPYAYPRP,-0.533
14,RRIRNRPPRLPRPRPRPEDIPRP,-0.194
15,RRIRFRPPRLPRPRPRPFWWPRP,0.398
16,RRIRTRPPRLPRPRPRPEDMPRP,-0.00975
17,RRIRKRPPRLPRPRPRPPICPRP,0.684
18,RRIRMRPPRLPRPRPRPCYQPRP,2.31
19,RRIRARPPRLPRPRPRPYDKPRP,-0.865
20,RRIRGRPPRLPRPRPRPFQHPRP,-0.0674
21,RRIRMRPPRLPRPRPRPCMFPRP,-0.038
22,RRIRKRPPRLPRPRPRPWMSPRP,-0.0718
23,RRIRSRPPRLPRPRPRPWQFPRP,0.0527
24,RRIRTRPPRLPRPRPRPKKIPRP,-0.437
25,RRIRDRPPRLPRPRPRPLALPRP,0.0811

row,Sequence,shrunken log2 fold change
1,RRIRARPPRLPRPRPRPMHDPRP,0.341
2,RRIRVRPPRLPRPRPRPRSHPRP,0.0021
3,RRIRTRPPRLPRPRPRPNSHPRP,-0.015
4,RRIRKRPPRLPRPRPRPNDAPRP,0.0832
5,RRIRQRPPRLPRPRPRPWMGPRP,0.063
6,RRIRIRPPRLPRPRPRPDNQPRP,-1.03
7,RRIRTRPPRLPRPRPRPGAMPRP,0.144
8,RRIRFRPPRLPRPRPRPISDPRP,0.0114
9,RRIRLRPPRLPRPRPRPWHDPRP,-0.205
10,RRIRERPPRLPRPRPRPSLGPRP,-0.143
11,RRIRYRPPRLPRPRPRPWANPRP,-0.176
12,RRIRSRPPRLPRPRPRPPCEPRP,-0.236
13,RRIRMRPPRLPRPRPRPSMCPRP,0.0724
14,RRIRIRPPRLPRPRPRPHTWPRP,-0.401
15,RRIRLRPPRLPRPRPRPCDPPRP,-0.14
16,RRIRWRPPRLPRPRPRPVSFPRP,0.169
17,RRIRMRPPRLPRPRPRPAQTPRP,0.00383
18,RRIRIRPPRLPRPRPRPDYLPRP,-0.0127
19,RRIRRRPPRLPRPRPRPRNDPRP,0.195
20,RRIRRRPPRLPRPRPRPSMLPRP,-0.172
21,RRIRQRPPRLPRPRPRPDRWPRP,0.37
22,RRIRWRPPRLPRPRPRPYQGPRP,-0.0161
23,RRIRVRPPRLPRPRPRPMKAPRP,0.0113
24,RRIRTRPPRLPRPRPRPITTPRP,-0.438
25,RRIRYRPPRLPRPRPRPEIKPRP,-0.114

row,Sequence,shrunken log2 fold change
1,RRIRYRPPRLPRPRPRPSYHPRP,-1.21
2,RRIRQRPPRLPRPRPRPRHKPRP,0.0456
3,RRIRRRPPRLPRPRPRPDIRPRP,-0.294
4,RRIRRRPPRLPRPRPRPMMNPRP,0.00643
5,RRIRLRPPRLPRPRPRPYNTPRP,-0.806
6,RRIRPRPPRLPRPRPRPCMHPRP,-0.297
7,RRIRGRPPRLPRPRPRPYESPRP,0.133
8,RRIRNRPPRLPRPRPRPTYAPRP,0.027
9,RRIRARPPRLPRPRPRPIDPPRP,0.00727
10,RRIRNRPPRLPRPRPRPQMMPRP,-0.227
11,RRIRDRPPRLPRPRPRPYGHPRP,-0.012
12,RRIRQRPPRLPRPRPRPMRCPRP,0.054
13,RRIRERPPRLPRPRPRPKRSPRP,-0.0414
14,RRIRERPPRLPRPRPRPTLDPRP,0.149
15,RRIRIRPPRLPRPRPRPVPFPRP,-0.264
16,RRIRVRPPRLPRPRPRPKPFPRP,0.00969
17,RRIRERPPRLPRPRPRPIPGPRP,-0.124
18,RRIRKRPPRLPRPRPRPYIYPRP,-0.0483
19,RRIRDRPPRLPRPRPRPADFPRP,-0.0606
20,RRIRFRPPRLPRPRPRPNASPRP,-0.304
21,RRIRDRPPRLPRPRPRPKSQPRP,0.231
22,RRIRRRPPRLPRPRPRPRETPRP,1.13
23,RRIRWRPPRLPRPRPRPPQMPRP,0.592
24,RRIRHRPPRLPRPRPRPMPVPRP,-0.0266
25,RRIRMRPPRLPRPRPRPGSEPRP,0.952

row,Sequence,shrunken log2 fold change
1,RRIRFRPPRLPRPRPRPNKIPRP,-0.538
2,RRIRSRPPRLPRPRPRPEPEPRP,0.102
3,RRIRKRPPRLPRPRPRPAAYPRP,0.361
4,RRIRIRPPRLPRPRPRPFRAPRP,-0.332
5,RRIRPRPPRLPRPRPRPDTDPRP,-0.158
6,RRIRWRPPRLPRPRPRPFDDPRP,-0.121
7,RRIRCRPPRLPRPRPRPCNMPRP,-0.502
8,RRIRKRPPRLPRPRPRPNEAPRP,-0.00686
9,RRIRVRPPRLPRPRPRPFHGPRP,0.162
10,RRIRMRPPRLPRPRPRPFQPPRP,0.0604
11,RRIRFRPPRLPRPRPRPIVGPRP,-0.0769
12,RRIRVRPPRLPRPRPRPPQMPRP,0.236
13,RRIRPRPPRLPRPRPRPLISPRP,-0.17
14,RRIRMRPPRLPRPRPRPHPVPRP,0.0384
15,RRIRKRPPRLPRPRPRPISIPRP,0.0294
16,RRIRVRPPRLPRPRPRPYIEPRP,-0.584
17,RRIRFRPPRLPRPRPRPLYWPRP,-0.319
18,RRIRMRPPRLPRPRPRPRRPPRP,1.16
19,RRIRVRPPRLPRPRPRPHNYPRP,-0.181
20,RRIRPRPPRLPRPRPRPDQIPRP,-0.265
21,RRIRDRPPRLPRPRPRPAKDPRP,-0.0015
22,RRIRLRPPRLPRPRPRPRTAPRP,0.482
23,RRIRRRPPRLPRPRPRPVWKPRP,0.147
24,RRIRMRPPRLPRPRPRPSFGPRP,0.0121
25,RRIRERPPRLPRPRPRPVNEPRP,-0.224

row,Sequence,shrunken log2 fold change
1,RRIRQRPPRLPRPRPRPQKPPRP,0.0718
2,RRIRVRPPRLPRPRPRPFYAPRP,-0.357
3,RRIRKRPPRLPRPRPRPNYNPRP,0.0883
4,RRIRVRPPRLPRPRPRPRNPPRP,0.148
5,RRIRYRPPRLPRPRPRPCMCPRP,-0.516
6,RRIRGRPPRLPRPRPRPFSFPRP,0.268
7,RRIRGRPPRLPRPRPRPHFHPRP,0.603
8,RRIRIRPPRLPRPRPRPPQPPRP,0.343
9,RRIRMRPPRLPRPRPRPNRRPRP,0.179
10,RRIRVRPPRLPRPRPRPHTAPRP,-0.00836
11,RRIRRRPPRLPRPRPRPKSLPRP,0.0308
12,RRIRFRPPRLPRPRPRPCASPRP,-0.315
13,RRIRFRPPRLPRPRPRPIECPRP,-0.00174
14,RRIRHRPPRLPRPRPRPMCPPRP,-0.0218
15,RRIRTRPPRLPRPRPRPCFCPRP,-0.259
16,RRIRKRPPRLPRPRPRPWTFPRP,0.489
17,RRIRRRPPRLPRPRPRPTNLPRP,0.068
18,RRIRIRPPRLPRPRPRPFQYPRP,-0.0506
19,RRIRVRPPRLPRPRPRPERYPRP,0.133
20,RRIRRRPPRLPRPRPRPFWIPRP,0.0724
21,RRIRNRPPRLPRPRPRPHVQPRP,-0.0883
22,RRIRARPPRLPRPRPRPFKAPRP,0.0354
23,RRIRVRPPRLPRPRPRPLFQPRP,-0.0438
24,RRIRTRPPRLPRPRPRPVRYPRP,-0.028
25,RRIRCRPPRLPRPRPRPVVDPRP,-0.15
